Assay [1] deals with T1, oxidized His–GSTF3 (A. thaliana, UniProt Q9SLM6 1-212, oxidized (positions not stated for this sample)).
T1 construct: Glutathione S-transferase F3 (GSTF3), A. thaliana, locus At2g02930; cloned into pET-53-DEST; How it was oxidized is told only for the activity assay (0.5 mM HOCl, 40 min, stopped with 5 mM Met); also called recombinant GSTF3; MetO–GSTF3
T1 sequence (looked up): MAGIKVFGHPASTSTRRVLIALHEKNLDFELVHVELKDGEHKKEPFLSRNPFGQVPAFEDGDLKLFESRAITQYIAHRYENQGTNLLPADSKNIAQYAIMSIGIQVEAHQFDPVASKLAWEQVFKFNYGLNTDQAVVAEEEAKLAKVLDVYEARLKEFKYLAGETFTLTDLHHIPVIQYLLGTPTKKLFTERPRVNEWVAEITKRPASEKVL
Briefly: co-IP; recombinant His–flag–MSRB7 and oxidized His–GSTs incubated with rabbit anti-flag antibody in IP buffer (15 mM HEPES pH 7.4, 1 mM EDTA, 1 mM DTT, 10 mM MgCl2, 30 mM KCl) 1 h at room temperature; Protein G–Sepharose; blot with mouse anti-His antibody. The following applies: both partners purified.

Assay [2] concerns the target T2, oxidized His–GSTF2 (A. thaliana, UniProt P46422 1-212, oxidized (positions not stated for this sample)).
T2 construct: Glutathione S-transferase F2 (GSTF2), A. thaliana, locus At4g02520; cloned into pET-53-DEST; How it was oxidized is told only for the activity assay (0.5 mM HOCl, 40 min, stopped with 5 mM Met); also called recombinant GSTF2; MetO–GSTF2
T2 sequence (looked up): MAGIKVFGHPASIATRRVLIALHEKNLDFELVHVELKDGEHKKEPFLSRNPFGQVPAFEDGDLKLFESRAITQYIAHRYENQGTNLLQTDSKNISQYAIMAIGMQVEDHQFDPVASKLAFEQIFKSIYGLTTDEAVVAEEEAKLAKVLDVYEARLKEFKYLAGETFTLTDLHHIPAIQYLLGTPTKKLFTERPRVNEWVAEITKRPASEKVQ
The assay is described as above. The following applies: both partners purified.

B1: His–flag–MSRB7 (enzyme, A. thaliana, UniProt Q8VY86 1-144, looked up)
chain: MAAMTAAAVPATGSFQKQDEEWRAVLSPEQFRVLRLKGTDKRGKGEFTKKFEEGTYSCAGCGTALYKSTTKFDSGCGWPAFFDAIPGAIKQTPEAGGRRMEITCAVCDGHLGHVFKGEGYSTPTDQRHCVNSVSLKFSSAGSSQ
notes: Methionine sulfoxide reductase B7 (MSRB7), A. thaliana, locus At4g21830; N terminus fused with a flag tag, cloned into pET-53-DEST; also called recombinant MSRB7; not shown: flag, N-terminal, kept
In the case of B1, the binding result in assay [1] and in assay [2] was “binds” in each case.

Source of the values: article PMC4144780, “MSRB7 reverses oxidation of GSTF2/3 to confer tolerance of Arabidopsis thaliana to oxidative stress” (Journal of Experimental Botany, 2014).
